Test results: the Human Domainome abundance scans (Beltran et al. 2025)
± gives the uncertainty stated by the source.

B1: Gamma-crystallin S, residues 96 to 176; numbered along this chain, P22914 (parent)
chain: IQIFEKGDFSGQMYETTEDCPSIMEQFHMREIHSCKVLEGVWIFYELPNYRGRQYLLDKKEYRKPIDWGAASPAVQSFRRI

Variants of: B1
Assay: abundance fitness (aPCA) (normalised: wild type 0, dead -1); higher = more abundant; growth selection in yeast, the domain comes from the species named
Conditions: Homo sapiens

Question: Which abundance fitness does the source give for IQIFEKGDFSGQMYETTEDCPSIMEQFHMREIHSCKVLEGVWIFYELPPYRGRQYLLDKKEYRKPIDWGAASPAVQSFRRI [N49P] here?
Answer: The abundance fitness was -0.591 ± 0.069.

Question: With IQIFEKGDFSGQMYETTEDCPSIMEQFHMREIHSCKVLEGVWIFYELPRYRGRQYLLDKKEYRKPIDWGAASPAVQSFRRI [N49R] as the variant, how does the abundance fitness read?
Answer: The abundance fitness was -0.07 ± 0.027.

Question: For IQIFEKGDFSGQMYETTEDCPSIMEQFHMREIHSCKVLEGVWIFYELPTYRGRQYLLDKKEYRKPIDWGAASPAVQSFRRI [N49T], which abundance fitness is on record?
Answer: Its abundance fitness is -0.167 ± 0.047.

Question: With IQIFEKGDFSGQMYETTEDCPSIMEQFHMREIHSCKVLEGVWIFYELPVYRGRQYLLDKKEYRKPIDWGAASPAVQSFRRI [N49V] as the variant, how does the abundance fitness read?
Answer: Its abundance fitness is -0.198 ± 0.028.

Question: With IQIFEKGDFSGQMYETTEDCPSIMEQFHMREIHSCKVLEGVWIFYELPWYRGRQYLLDKKEYRKPIDWGAASPAVQSFRRI [N49W] as the variant, how does the abundance fitness read?
Answer: The abundance fitness was 0.004 ± 0.033.

Question: Which abundance fitness does the source give for IQIFEKGDFSGQMYETTEDCPSIMEQFHMREIHSCKVLEGVWIFYELPYYRGRQYLLDKKEYRKPIDWGAASPAVQSFRRI [N49Y] here?
Answer: Its abundance fitness is -0.044 ± 0.063.

Question: For IQIFEKGDFSGQMYETTEDCPSIMEQFHMREIHSCKVLEGVWIFYELPNARGRQYLLDKKEYRKPIDWGAASPAVQSFRRI [Y50A], which abundance fitness is on record?
Answer: The abundance fitness was -0.576 ± 0.03.

Question: Which abundance fitness does the source give for IQIFEKGDFSGQMYETTEDCPSIMEQFHMREIHSCKVLEGVWIFYELPNCRGRQYLLDKKEYRKPIDWGAASPAVQSFRRI [Y50C] here?
Answer: The abundance fitness was -0.047 ± 0.047.

Question: Which abundance fitness does the source give for IQIFEKGDFSGQMYETTEDCPSIMEQFHMREIHSCKVLEGVWIFYELPNDRGRQYLLDKKEYRKPIDWGAASPAVQSFRRI [Y50D] here?
Answer: Its abundance fitness is -0.823 ± 0.077.

Question: For IQIFEKGDFSGQMYETTEDCPSIMEQFHMREIHSCKVLEGVWIFYELPNERGRQYLLDKKEYRKPIDWGAASPAVQSFRRI [Y50E], which abundance fitness is on record?
Answer: Its abundance fitness is -0.559 ± 0.03.

Question: For IQIFEKGDFSGQMYETTEDCPSIMEQFHMREIHSCKVLEGVWIFYELPNFRGRQYLLDKKEYRKPIDWGAASPAVQSFRRI [Y50F], which abundance fitness is on record?
Answer: Its abundance fitness is -0.002 ± 0.045.

Question: With IQIFEKGDFSGQMYETTEDCPSIMEQFHMREIHSCKVLEGVWIFYELPNGRGRQYLLDKKEYRKPIDWGAASPAVQSFRRI [Y50G] as the variant, how does the abundance fitness read?
Answer: Its abundance fitness is -0.421 ± 0.028.

Question: With IQIFEKGDFSGQMYETTEDCPSIMEQFHMREIHSCKVLEGVWIFYELPNHRGRQYLLDKKEYRKPIDWGAASPAVQSFRRI [Y50H] as the variant, how does the abundance fitness read?
Answer: The abundance fitness was -0.102 ± 0.051.

Question: With IQIFEKGDFSGQMYETTEDCPSIMEQFHMREIHSCKVLEGVWIFYELPNIRGRQYLLDKKEYRKPIDWGAASPAVQSFRRI [Y50I] as the variant, how does the abundance fitness read?
Answer: The abundance fitness was -0.851 ± 0.12.

Question: Which abundance fitness does the source give for IQIFEKGDFSGQMYETTEDCPSIMEQFHMREIHSCKVLEGVWIFYELPNKRGRQYLLDKKEYRKPIDWGAASPAVQSFRRI [Y50K] here?
Answer: The abundance fitness was -0.884 ± 0.09.

Question: Which abundance fitness does the source give for IQIFEKGDFSGQMYETTEDCPSIMEQFHMREIHSCKVLEGVWIFYELPNLRGRQYLLDKKEYRKPIDWGAASPAVQSFRRI [Y50L] here?
Answer: The abundance fitness was -0.351 ± 0.03.

Question: Which abundance fitness does the source give for IQIFEKGDFSGQMYETTEDCPSIMEQFHMREIHSCKVLEGVWIFYELPNMRGRQYLLDKKEYRKPIDWGAASPAVQSFRRI [Y50M] here?
Answer: Its abundance fitness is -0.072 ± 0.045.

Question: With IQIFEKGDFSGQMYETTEDCPSIMEQFHMREIHSCKVLEGVWIFYELPNNRGRQYLLDKKEYRKPIDWGAASPAVQSFRRI [Y50N] as the variant, how does the abundance fitness read?
Answer: Its abundance fitness is -0.567 ± 0.087.

Question: With IQIFEKGDFSGQMYETTEDCPSIMEQFHMREIHSCKVLEGVWIFYELPNPRGRQYLLDKKEYRKPIDWGAASPAVQSFRRI [Y50P] as the variant, how does the abundance fitness read?
Answer: Its abundance fitness is -1.14 ± 0.11.

Question: Which abundance fitness does the source give for IQIFEKGDFSGQMYETTEDCPSIMEQFHMREIHSCKVLEGVWIFYELPNQRGRQYLLDKKEYRKPIDWGAASPAVQSFRRI [Y50Q] here?
Answer: The abundance fitness was -0.356 ± 0.047.

Question: For IQIFEKGDFSGQMYETTEDCPSIMEQFHMREIHSCKVLEGVWIFYELPNRRGRQYLLDKKEYRKPIDWGAASPAVQSFRRI [Y50R], which abundance fitness is on record?
Answer: Its abundance fitness is -0.685 ± 0.033.

Question: Which abundance fitness does the source give for IQIFEKGDFSGQMYETTEDCPSIMEQFHMREIHSCKVLEGVWIFYELPNSRGRQYLLDKKEYRKPIDWGAASPAVQSFRRI [Y50S] here?
Answer: Its abundance fitness is -0.705 ± 0.041.

Question: Which abundance fitness does the source give for IQIFEKGDFSGQMYETTEDCPSIMEQFHMREIHSCKVLEGVWIFYELPNTRGRQYLLDKKEYRKPIDWGAASPAVQSFRRI [Y50T] here?
Answer: Its abundance fitness is -0.949 ± 0.081.

Question: Which abundance fitness does the source give for IQIFEKGDFSGQMYETTEDCPSIMEQFHMREIHSCKVLEGVWIFYELPNVRGRQYLLDKKEYRKPIDWGAASPAVQSFRRI [Y50V] here?
Answer: Its abundance fitness is -1.02 ± 0.056.

Question: Which abundance fitness does the source give for IQIFEKGDFSGQMYETTEDCPSIMEQFHMREIHSCKVLEGVWIFYELPNWRGRQYLLDKKEYRKPIDWGAASPAVQSFRRI [Y50W] here?
Answer: The abundance fitness was -0.036 ± 0.041.

Question: For IQIFEKGDFSGQMYETTEDCPSIMEQFHMREIHSCKVLEGVWIFYELPNYAGRQYLLDKKEYRKPIDWGAASPAVQSFRRI [R51A], which abundance fitness is on record?
Answer: Its abundance fitness is -0.004 ± 0.057.

Question: Which abundance fitness does the source give for IQIFEKGDFSGQMYETTEDCPSIMEQFHMREIHSCKVLEGVWIFYELPNYDGRQYLLDKKEYRKPIDWGAASPAVQSFRRI [R51D] here?
Answer: Its abundance fitness is 0 ± 0.11.

Question: Which abundance fitness does the source give for IQIFEKGDFSGQMYETTEDCPSIMEQFHMREIHSCKVLEGVWIFYELPNYEGRQYLLDKKEYRKPIDWGAASPAVQSFRRI [R51E] here?
Answer: The abundance fitness was 0.037 ± 0.072.

Question: Which abundance fitness does the source give for IQIFEKGDFSGQMYETTEDCPSIMEQFHMREIHSCKVLEGVWIFYELPNYGGRQYLLDKKEYRKPIDWGAASPAVQSFRRI [R51G] here?
Answer: The abundance fitness was 0.062 ± 0.035.

Question: With IQIFEKGDFSGQMYETTEDCPSIMEQFHMREIHSCKVLEGVWIFYELPNYHGRQYLLDKKEYRKPIDWGAASPAVQSFRRI [R51H] as the variant, how does the abundance fitness read?
Answer: Its abundance fitness is 0.013 ± 0.1.

Question: With IQIFEKGDFSGQMYETTEDCPSIMEQFHMREIHSCKVLEGVWIFYELPNYIGRQYLLDKKEYRKPIDWGAASPAVQSFRRI [R51I] as the variant, how does the abundance fitness read?
Answer: Its abundance fitness is -0.04 ± 0.083.

Question: Which abundance fitness does the source give for IQIFEKGDFSGQMYETTEDCPSIMEQFHMREIHSCKVLEGVWIFYELPNYKGRQYLLDKKEYRKPIDWGAASPAVQSFRRI [R51K] here?
Answer: Its abundance fitness is 0.008 ± 0.082.

Question: With IQIFEKGDFSGQMYETTEDCPSIMEQFHMREIHSCKVLEGVWIFYELPNYLGRQYLLDKKEYRKPIDWGAASPAVQSFRRI [R51L] as the variant, how does the abundance fitness read?
Answer: The abundance fitness was -0.019 ± 0.044.

Question: With IQIFEKGDFSGQMYETTEDCPSIMEQFHMREIHSCKVLEGVWIFYELPNYMGRQYLLDKKEYRKPIDWGAASPAVQSFRRI [R51M] as the variant, how does the abundance fitness read?
Answer: Its abundance fitness is 0.049 ± 0.077.
